# Read-outs that look alike come from different tables or passages of the source.
# Tests used:
# [1] = biological target: integrin α4β7, P13612;P26010; test: steady-state binding assay on primary α4β7+/CD4+ T-cells (flow cytometry, MFI); settings: read off a plot
# [2] = biological target: integrin α4β7 (human (endogenous in primary CD4+ T cells)) (UniProt P13612); test: flow cytometry on cells; α4β7-reactivity: biotinylated gp120 on retinoic acid-cultured primary CD4+ T cells with CD4 masked by unlabeled mAb Leu3A (α4 mAb HP2/1 as specificity control); HBS with 100 µM CaCl2 and 1 mM MnCl2, on ice; Neutravidin PE; MFI of the CD45RO+/CCR5+ gate; steady state
# [3] = biological target: integrin α4β7 (human (endogenous in primary CD4+ T cells)) (UniProt P13612); test: as above; remark: listed apart in the source
# [4] = first point, plotted at x = 0 µg gp120, parent: est. 20
substance,measurement,setting,value
QA203M41 chimeric gp120 (V1/V2 of QA203M41 in a Q23 backbone) N22Q; N25Q; N66Q; N67Q,response,[1]; [4],200 MFI
same,response,"[1]; gp120 1 µg, parent: est. 25",410 MFI
same,response,"[1]; gp120 2 µg, parent: est. 30",750 MFI
same,response,"[1]; gp120 4 µg, parent: est. 50",1300 MFI
Z205F.ENV1.1 0Mfounder gp120 (natural protein),fold bound to α4β7 over bound to CD4,[2],37 fold
same,fold α4β7-reactivity over the 0-month escape gp120,[2],8 fold
same,fold α4β7-reactivity over the 8- and 38-month escape gp120s,[2],> 17 fold
QA203M41 chimeric gp120 (V1/V2 of QA203M41 in a Q23 backbone) N66Q; N67Q,response,[1]; [4],50 MFI
same,response,"[1]; gp120 2 µg, parent: est. 30",180 MFI
same,response,"[1]; gp120 4 µg, parent: est. 50",280 MFI
92Ug037N355Q gp120 (natural protein),fold increase in α4β7-reactivity over w.t. 92Ug037,[2],27 fold
QA203M41 chimeric gp120 (V1/V2 of QA203M41 in a Q23 backbone) N22Q; N25Q,response,[1]; [4],300 MFI
same,response,"[1]; gp120 0.5 µg, parent: est. 20",270 MFI
same,response,"[1]; gp120 1 µg, parent: est. 25",580 MFI
same,response,"[1]; gp120 1 µg, parent: est. 45",600 MFI
same,response,"[1]; gp120 2 µg, parent: est. 30",1400 MFI
same,response,"[1]; gp120 2 µg, parent: est. 110",1300 MFI
same,response,"[1]; gp120 4 µg, parent: est. 50",1700 MFI
same,response,"[1]; gp120 4 µg, parent: est. 230",2000 MFI
"AN1 NN140/143QQ,N204Q gp120",fold increase in α4β7-reactivity over AN1 w.t. expressed in CHO-S cells,[2],96 fold
92Ug037N144Q gp120 (natural protein),fold increase in α4β7-reactivity over w.t. 92Ug037,[2],20 fold
92Ug037 w.t. gp120 (subtype A) N133Q,response,[1]; parent: est. 27,72 MFI
93MW959 w.t. gp120 (subtype C) N139Q,response,[1]; parent: est. 300,500 MFI
AN1 NN140/143QQ gp120,fold increase in α4β7-reactivity over AN1 w.t. expressed in CHO-S cells,[2],25 fold
AN1 w.t. gp120 expressed in CHO lec1 cells,fold α4β7-reactivity over CHO S AN1 w.t. gp120,[3],> 100 fold
same,fold α4β7-reactivity over CHO S AN1 w.t. gp120,[2],100 fold
92Ug037 w.t. gp120 (subtype A) N137Q,response,[1]; parent: est. 27,160 MFI
93MW959 w.t. gp120 (subtype C) N145Q,response,[1]; parent: est. 300,550 MFI
92Ug037 w.t. gp120 (subtype A) N187Q; N188Q,response,[1]; parent: est. 27,540 MFI
92Ug037N385Q gp120 (natural protein),fold increase in α4β7-reactivity over w.t. 92Ug037,[2],8 fold
AN1 N204Q gp120,fold increase in α4β7-reactivity over AN1 w.t. expressed in CHO-S cells,[2],23 fold

# From publication PMC3044691
